Data on one molecule can be found in patent publication US20250277031A1 (BEIJING HANMI PHARMACEUTICAL, published 2025).

The target in test [1] is T1, recombinant human CD47 (human, UniProt Q08722 19-139).
T1 construct: also called antigen CD47
Nature of the test: SPR, Biacore X100, antibody captured on Protein A chip, CD47 as analyte. The source says: Biacore X100 instrument (purchased from GE) was used to detect the kinetic constant of the chimeric anti-human CD47 monoclonal antibodies binding to its antigen human CD47. This instrument utilizes optical surface plasmon resonance technology to detect the association and dissociation between the molecules coated on the biochip and the molecules to be tested. The main reagent used is Protein A chip (GE Healthcare, 29-1275-57). The experimental procedure is briefly described as follows: the chimeric anti-human CD47 antibodies were diluted in running buffer (1×HBS-EP+10 mM HEPES, 150 mM NaCl, 3 mM EDTA, 0.05% surfactant P20, pH7.4). During the capture-binding phase, the antibodies at a concentration of 2 μg/mL were injected for 60 seconds at a speed of 10 μL/min. During the binding phase, the antigen CD47 was diluted into multiple concentrations with running buffer, injected for 120 seconds at a speed of 30 μL/min respectively. During the dissociation phase, running buffer was injected for 600 seconds at a speed of 10 μL/min. The regeneration condition is 10 mM glycinate solution, pH1.5. Association kinetic constants and dissociation kinetic constants were analyzed and calculated by Biacore X100 evaluation software. The association kinetic constants, dissociation kinetic constants and dissociation equilibrium constants of the chimeric anti-human CD47 antibodies were shown in Table 7.

Test [2] addresses recombinant cynomolgus CD47 (cynomolgus, UniProt A0A2K5X523 19-139). Nature of the test: ELISA, plate coated with 1 µg/mL recombinant cynomolgus CD47, anti-human IgG-HRP, OD450. The method, then: (§1) Species specificity of the chimeric anti-human CD47 mAbs was determined by ELISA. A 96-well high-adsorption ELISA plate was coated with 1 μg/mL of the recombinant human CD47, cynomolgus CD47, rat CD47 and mouse CD47, at 100 μL per well using carbonate buffer solution, pH=9.6 at 4° C. overnight. The plate was washed 5 times with PBST, and then blocked using PBST with 1% BSA, 300 μL/well, and incubated at 25° C. for 1 hour, and then washed 5 times with PBST. The chimeric anti-human CD47 antibody samples serially diluted in PBST with 1% BSA were added, 100 μL/well, incubated at 25° C. for 1 hour, and then washed 5 times with PBST. The horseradish peroxidase-labeled anti-human IgG antibody (Chemicon, catalog number AP309P) diluted 1:10000 in PBST with 1% BSA was then added, 100 μL per well, and incubated at 25° C. for 1 hour. The plate was washed 5 times with PBST. The colorimetric substrate TMB was added, 100 μL/well, and developed at room temperature for 10 minutes. 1M H₂SO₄ was added, 100 μL/well, to stop the development. The absorbance at 450 nm was read on a microplate reader.

In test [3] the target is T2, rat CD47 on rat red blood cells (rat, UniProt P97829 19-303).
T2 construct: whole, on cells; also called Rat RBCs
T2 sequence (looked up): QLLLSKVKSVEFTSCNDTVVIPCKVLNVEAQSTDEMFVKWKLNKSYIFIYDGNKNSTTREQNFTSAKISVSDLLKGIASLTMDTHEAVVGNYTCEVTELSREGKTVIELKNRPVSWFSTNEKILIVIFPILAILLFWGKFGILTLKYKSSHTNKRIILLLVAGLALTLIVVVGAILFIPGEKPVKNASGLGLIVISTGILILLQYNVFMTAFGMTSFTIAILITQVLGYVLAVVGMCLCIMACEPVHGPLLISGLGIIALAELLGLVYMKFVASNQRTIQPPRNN
Kind of test: flow cytometry on rat RBCs. The method, then:
The species specificity of the chimeric anti-human CD47 monoclonal antibodies was determined by flow cytometer FACS. Normal human RBCs internally donated, cynomolgus RBCs, rat RBCs and mouse RBCs were collected, washed once with cold PBS (GIBCO, Catalog number 14190) containing 2% FBS (Hyclone, Catalog number SH30084.03). The RBCs (2×10⁶ cells per tube) were resuspended in 100 μL of cold PBS containing 2% FBS, and the serially diluted anti-human CD47 antibody samples and the control CC-90002 and the isotype control were added therein. Flow tubes were incubated on ice for 30 minutes. The cells were washed twice with PBS containing 2% FBS. Then the pellets were resuspended in 200 μL of cold PBS containing 2% FBS and FITC-labeled anti-human IgG antibody diluted 1:1000 (Beijing Zhongshan Golden Bridge, Catalog number ZF0306), incubated on ice for 30 minutes in the dark. The cells were washed twice with PBS containing 2% FBS, then resuspended in 500 μL of cold PBS. The cell suspension obtained was detected and analyzed on a flow cytometer (BD, FACS Calibur), and the fluorescence intensities of the RBCs were read.

Test [4] concerns the target T1, recombinant human CD47. Kind of test: ELISA, plate coated with 1 µg/mL recombinant human CD47, anti-human IgG-HRP, OD450. As for the experimental part:
as §1

The target of a further test is T3, recombinant rat CD47 (rat, UniProt P97829 19-140, limits assumed).
T3 sequence (looked up): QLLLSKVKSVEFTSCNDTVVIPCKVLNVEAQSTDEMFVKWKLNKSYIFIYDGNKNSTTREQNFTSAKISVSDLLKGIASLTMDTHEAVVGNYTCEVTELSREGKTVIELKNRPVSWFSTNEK
Kind of test: ELISA, plate coated with 1 µg/mL recombinant rat CD47, anti-human IgG-HRP, OD450. The method, then:
as §1

Test [5] deals with T1, recombinant human CD47. Kind of test: ELISA, plate coated with 1 µg/mL recombinant human CD47, OD450. The method, then:
A 96-well high-adsorption ELISA plate was coated with 1 μg/mL of the recombinant human CD47 (Sino Biological Inc.) at 100 μL per well using carbonate buffer solution, pH=9.6 at 4° C. overnight. The plate was washed 5 times with PBST, and then blocked using PBST with 1% BSA, 300 μL/well, and incubated at 25° C. for 1 hour, and then washed 5 times with PBST. The anti-human CD47 antibody samples and the control CC-90002 (a patent sequence from WO2016109415) were added, 100 μL/well, incubated at 25° C. for 1 hour, and then washed 5 times with PBST. The horseradish peroxidase-labeled anti-mouse IgG antibody (Abcam, catalog number Ab7068) diluted 1:10000 in PBST with 1% BSA was then added, 100 μL per well, and incubated at 25° C. for 1 hour. The plate was washed 5 times with PBST. The colorimetric substrate TMB was added, 100 μL/well, and developed at room temperature for 10 minutes. 1M H₂SO₄ was added, 100 μL/well, to stop the development. The absorbance at 450 nm was read on a microplate reader.

T1 sequence (Q08722 19-139 limits assumed): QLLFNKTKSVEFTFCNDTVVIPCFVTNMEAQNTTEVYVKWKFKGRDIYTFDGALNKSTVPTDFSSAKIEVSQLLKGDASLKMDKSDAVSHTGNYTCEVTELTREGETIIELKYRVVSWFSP

B1: chimeric anti-human CD47 monoclonal antibody mAb-18-5 (antibody, human IgG1, kappa)
heavy: not shown
light: DIVMTQSQKFMSTSVGDRVSITCKASQNVRTSIAWYQQKSGQSPKTLIYLASNRHTGVPDRFTGSGSGTDFTLTISNVQSEDLADYFCLQHWNYPFTFGSGTKLEIKRTVAAPSVFIFPPSDEQLKSGTASVVCLLNNFYPREAKVQWKVDNALQSGNSQESVTEQDSKDSTYSLSSTLTLSKADYEKHKVYACEVTHQGLSSPVTKSFNRGEC
For the molecule B1, the Kd with recombinant human CD47 [1] turned out to be 0.693 nM. Moreover, in the test with recombinant human CD47 [1], the koff is 0.000823 s⁻¹. In addition, in the test with recombinant human CD47 [1], the kon was 1.19e+06 M⁻¹ s⁻¹. Moreover, the EC50 in test [2] was 0.089 nM; with recombinant human CD47 [4] it was 0.086 nM; in the test with recombinant human CD47 [5] it was 0.026 nM. In addition, the values for the binding result (in test [3]; in the test with recombinant rat CD47) were “no binding” and “no binding (tested: about 20 nM)”, respectively.
